The results in this text go back to article PMC10912764.

Test [1] addresses amyloid-β peptide Aβ (1–42) (UniProt P05067).
Test [2] shares this target. The source holds these as a separate data set.

E. coli CsgA protein with a C-terminal 6× His tag, sequence (P28307 21-151): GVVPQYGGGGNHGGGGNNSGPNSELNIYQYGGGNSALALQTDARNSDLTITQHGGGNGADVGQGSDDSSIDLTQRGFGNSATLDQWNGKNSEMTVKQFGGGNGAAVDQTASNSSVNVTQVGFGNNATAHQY

For the substance “E. coli CsgA protein with a C-terminal 6× His tag (from UniProt P28307 21-151) (natural protein)”, in test [1], the inhibition of Aβ aggregation (ThT fluorescence; 75 µM Aβ with 10 µM CsgA, excess Aβ 7.5:1) was 43% and the lag phase of Aβ aggregation (ThT) with CsgA; approximately 150 h without CsgA was 175 h. For the same substance, in test [2], the inhibition of Aβ aggregation (ThT fluorescence; 75 µM Aβ with 10 µM CsgA), as given in the legend was found to be 47%.
